Experimental findings from paper PMC12802937 (Nucleic Acids Research, 2026) are described below.

Numbering of substitutions follows the chain as printed. Names may count otherwise.

Holding throughout (details): both partners purified
The target of assay [1] is T1, Bre1-LR (Bre1 residues 227–700, LBD and RING domains), 6× histidine tag (budding yeast, UniProt Q07457 227-700).
T1 construct: two Bre1 polypeptides form the dimeric coiled-coils of the LBD in the crystal structure; also called WT; source: E. coli BL21 Rosetta (DE3), purified (Ni-NTA, heparin, gel filtration)
T1 sequence (looked up): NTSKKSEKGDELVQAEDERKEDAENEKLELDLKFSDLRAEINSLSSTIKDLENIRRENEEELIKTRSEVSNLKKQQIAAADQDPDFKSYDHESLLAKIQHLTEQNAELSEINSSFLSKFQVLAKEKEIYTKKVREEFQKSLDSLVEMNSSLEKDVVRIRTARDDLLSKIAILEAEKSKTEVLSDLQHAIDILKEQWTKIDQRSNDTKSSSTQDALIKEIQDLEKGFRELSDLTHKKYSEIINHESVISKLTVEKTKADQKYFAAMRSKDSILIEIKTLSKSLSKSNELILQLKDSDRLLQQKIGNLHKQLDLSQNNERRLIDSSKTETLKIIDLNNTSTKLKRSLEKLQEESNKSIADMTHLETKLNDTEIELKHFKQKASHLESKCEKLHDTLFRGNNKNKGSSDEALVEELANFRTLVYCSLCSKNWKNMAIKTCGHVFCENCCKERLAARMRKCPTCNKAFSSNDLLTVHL
In words: SPR; Lge1-CT immobilised on a CM5 chip, Bre1-LR flown over; Biacore 8K, 25°C, 20 mM HEPES (pH 7.5), 200 mM sodium chloride, 0.02% Tween 20.

In assay [2] the target is T1, Bre1-LR (Bre1 residues 227–700, LBD and …). In words: ITC; Lge1-CT (50–60 μM) injected into Bre1-LR (15 μM); 25°C, 20 mM TRIS (pH 7.5), 200 mM sodium chloride.
Assay [3] has as its target T2, RNF-MD complex (strep-SUMO-RNF20 residues 321–900 with MBP-RNF40 residues 327–926) (human, UniProt Q5VTR2 321-900; O75150 327-926).
T2 construct: RNF20, human, residues 321-900; RNF40, human, residues 327-926; heterodimer; also called RNF20/RNF40; WT; source: E. coli BL21 Rosetta (DE3), purified from the mixed cell extract (strep-tactin, dextrin, gel filtration); copies: 1 + 1
Put plainly: SPR; RNF-MD immobilised on a CM5 chip, intein-WAC flown over; Biacore 8K, 25°C, 20 mM HEPES (pH 7.5), 200 mM sodium chloride, 0.02% Tween 20.

Assay [4] deals with T3, RNF-MD S1i (E822K/R826E in RNF20 and K860E in RNF40) (human, UniProt Q5VTR2 321-900; O75150 327-926, E822K | R826E | K860E).
T3 construct: RNF20, human, residues 321-900; RNF40, human, residues 327-926; source: E. coli BL21 Rosetta (DE3), purified from the mixed cell extract (strep-tactin, dextrin, gel filtration); copies: 1 + 1
T3 sequence (Q5VTR2 321-900 E822K/R826E, chain 1 of 2): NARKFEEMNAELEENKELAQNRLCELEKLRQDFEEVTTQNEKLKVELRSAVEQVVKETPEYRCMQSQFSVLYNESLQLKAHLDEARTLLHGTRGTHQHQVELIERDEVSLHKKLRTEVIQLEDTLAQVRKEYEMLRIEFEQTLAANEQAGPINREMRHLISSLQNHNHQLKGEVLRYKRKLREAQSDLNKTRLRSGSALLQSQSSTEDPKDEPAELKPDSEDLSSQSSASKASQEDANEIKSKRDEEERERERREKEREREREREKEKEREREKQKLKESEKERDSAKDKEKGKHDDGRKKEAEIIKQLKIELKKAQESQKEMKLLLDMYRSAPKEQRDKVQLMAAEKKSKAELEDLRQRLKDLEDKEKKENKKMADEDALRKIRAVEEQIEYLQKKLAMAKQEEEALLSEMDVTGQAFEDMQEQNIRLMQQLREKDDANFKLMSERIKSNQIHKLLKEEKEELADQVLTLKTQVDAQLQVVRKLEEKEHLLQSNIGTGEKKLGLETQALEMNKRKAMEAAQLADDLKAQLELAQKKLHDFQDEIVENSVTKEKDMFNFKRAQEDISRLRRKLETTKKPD
T3 sequence (O75150 327-926 K860E, chain 2 of 2): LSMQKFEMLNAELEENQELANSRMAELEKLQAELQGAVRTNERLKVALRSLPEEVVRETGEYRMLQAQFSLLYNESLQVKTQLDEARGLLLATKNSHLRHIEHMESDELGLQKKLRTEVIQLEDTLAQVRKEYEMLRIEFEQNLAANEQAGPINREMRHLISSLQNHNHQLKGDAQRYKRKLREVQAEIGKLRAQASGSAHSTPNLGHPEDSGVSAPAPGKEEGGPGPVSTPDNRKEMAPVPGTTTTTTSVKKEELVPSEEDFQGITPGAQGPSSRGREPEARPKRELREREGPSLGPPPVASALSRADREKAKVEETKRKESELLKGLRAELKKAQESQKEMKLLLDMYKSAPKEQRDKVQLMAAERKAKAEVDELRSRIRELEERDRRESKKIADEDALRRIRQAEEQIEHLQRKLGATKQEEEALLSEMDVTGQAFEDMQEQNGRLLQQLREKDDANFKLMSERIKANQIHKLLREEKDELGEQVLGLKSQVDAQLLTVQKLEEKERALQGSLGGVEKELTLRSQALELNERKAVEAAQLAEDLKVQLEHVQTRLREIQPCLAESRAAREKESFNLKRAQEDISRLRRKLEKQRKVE
Described as above.

The target in assay [5] is T4, RNF-MD S2i (E427K/K804E in RNF20 and E428K/E431K/E434K/R442E/E832K/E835K in RNF40) (human, UniProt Q5VTR2 321-900; O75150 327-926, E427K | K804E | E428K | E431K | E434K | R442E | E832K | E835K).
T4 construct: RNF20, human, residues 321-900; RNF40, human, residues 327-926; source: E. coli BL21 Rosetta (DE3), purified from the mixed cell extract (strep-tactin, dextrin, gel filtration); copies: 1 + 1
T4 sequence (Q5VTR2 321-900 E427K/K804E, chain 1 of 2): as the sequence (Q5VTR2 321-900 E822K/R826E, chain 1 of 2) above, with E107K, K484E, K502E, E506R counted along it
T4 sequence (O75150 327-926 E428K/E431K/E434K/R442E/E832K/E835K, chain 2 of 2): as the sequence (O75150 327-926 K860E, chain 2 of 2) above, with E102K, E105K, E108K, R116E, E506K, E509K, E534K counted along it
Described as above.

In assay [6] the target is T5, RNF-MD S3i (E783K/D786K in RNF20 and E449K/K818E in RNF40) (human, UniProt Q5VTR2 321-900; O75150 327-926, E783K | D786K | E449K | K818E).
T5 construct: RNF20, human, residues 321-900; RNF40, human, residues 327-926; source: E. coli BL21 Rosetta (DE3), purified from the mixed cell extract (strep-tactin, dextrin, gel filtration); copies: 1 + 1
T5 sequence (Q5VTR2 321-900 E783K/D786K, chain 1 of 2): as the sequence (Q5VTR2 321-900 E822K/R826E, chain 1 of 2) above, with E463K, D466K, K502E, E506R counted along it
T5 sequence (O75150 327-926 E449K/K818E, chain 2 of 2): as the sequence (O75150 327-926 K860E, chain 2 of 2) above, with E123K, K492E, E534K counted along it
Described as above.

Assay [7] deals with T6, Bre1, 6× histidine tag, purified (budding yeast, UniProt Q07457 1-700).
T6 construct: Bre1, budding yeast; the BRE1 gene inserted into pET26b; source: E. coli BL21 Rosetta (DE3), purified (Ni-NTA, heparin, gel filtration)
T6 sequence (looked up): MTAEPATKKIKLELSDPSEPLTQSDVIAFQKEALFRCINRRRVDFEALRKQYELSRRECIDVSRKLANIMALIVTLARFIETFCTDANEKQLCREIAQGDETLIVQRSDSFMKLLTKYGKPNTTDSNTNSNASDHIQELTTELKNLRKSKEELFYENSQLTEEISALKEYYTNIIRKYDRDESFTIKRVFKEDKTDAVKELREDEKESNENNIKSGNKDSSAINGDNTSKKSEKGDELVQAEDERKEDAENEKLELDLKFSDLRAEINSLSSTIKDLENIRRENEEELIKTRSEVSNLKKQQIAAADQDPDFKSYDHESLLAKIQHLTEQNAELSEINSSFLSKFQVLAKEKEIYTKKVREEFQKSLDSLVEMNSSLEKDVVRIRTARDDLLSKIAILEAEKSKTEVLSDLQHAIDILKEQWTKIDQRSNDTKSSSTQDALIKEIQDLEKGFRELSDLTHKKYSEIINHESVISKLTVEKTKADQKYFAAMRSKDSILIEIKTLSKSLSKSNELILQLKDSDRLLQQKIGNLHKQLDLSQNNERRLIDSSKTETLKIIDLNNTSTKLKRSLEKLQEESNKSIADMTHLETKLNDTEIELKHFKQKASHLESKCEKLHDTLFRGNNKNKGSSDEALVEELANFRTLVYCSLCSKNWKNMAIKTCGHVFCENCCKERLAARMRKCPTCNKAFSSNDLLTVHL
In words: co-sedimentation; 5%–45% sucrose gradient, purified Bre1, Lge1 or their mixture; 20 mM TRIS (pH 7.5), 10 mM potassium chloride, 5 mM magnesium chloride; 27 000 rpm, 15 h, 4°C.

T2 sequence (Q5VTR2 321-900, chain 1 of 2): as the sequence (Q5VTR2 321-900 E822K/R826E, chain 1 of 2) above, with K502E, E506R counted along it
T2 sequence (O75150 327-926, chain 2 of 2): as the sequence (O75150 327-926 K860E, chain 2 of 2) above, with E534K counted along it

B1: Lge1-CT E301K/R305E (domain or fragment, budding yeast, UniProt Q02796 261-332, looked up)
chain: KNVKKTNNTESECEKAREVFKESDSIDSALEELNLKINSNKLELELLNNQCDKHALNIQLTQEKLDSLLLMQ
notes: Lge1, budding yeast, residues 261-332; source: E. coli BL21 Rosetta (DE3): cleared cell extract on chitin resin (pull-down); purified (chitin, heparin, gel filtration) for ITC and SPR
In assay [1], B1 showed a Kd of 81.7 nM. Besides, in assay [2], binding was characterised by a dissociation constant (Kd) of 59.7 ± 38.2 nM, the dH was -19.4 ± 2.3 kcal/mol and the “stoichiometry N” value was 0.585 ± 0.022.

B2: Lge1-CT E303K (domain or fragment, budding yeast, UniProt Q02796 261-332, looked up)
chain: B1 chain with K41E, E43K, E45R
notes: as for B1
Take B2: in assay [1], the affinity, expressed as Kd, was 63.8 nM. In assay [2], the Kd was 132 ± 24 nM, the dH was -46.7 ± 2.2 kcal/mol and the “stoichiometry N” value amounted to 0.587 ± 0.011.

B3: Lge1-CT L316N (domain or fragment, budding yeast, UniProt Q02796 261-332, looked up)
chain: B1 chain with K41E, E45R, L56N
notes: as for B1
In assay [1], B3 displayed a Kd of 62.8 nM, a koff of 0.00527 s⁻¹ and a kon of 84000 M⁻¹ s⁻¹. Besides, in assay [2], the affinity, expressed as Kd, was 52.2 ± 4.9 nM; the dH is -65.4 ± 0.7 kcal/mol; the “stoichiometry N” value was 0.293 ± 0.002.

B4: Lge1-CT K313E/H314E (domain or fragment, budding yeast, UniProt Q02796 261-332, looked up)
chain: B1 chain with K41E, E45R, K53E, H54E
notes: as for B1
On to B4, for which, in assay [1], binding was characterised by a dissociation constant (Kd) of 51.8 nM, the koff came out at 0.00947 s⁻¹ and the kon came out at 183000 M⁻¹ s⁻¹. Also, in assay [2], the Kd worked out at 33.9 ± 8.4 nM, the dH is -43.6 ± 1.1 kcal/mol and the “stoichiometry N” value was 0.392 ± 0.005.

B5: Lge1-CT I318D (domain or fragment, budding yeast, UniProt Q02796 261-332, looked up)
chain: B1 chain with K41E, E45R, I58D
notes: as for B1
In assay [1], B5 registered a Kd of 20.7 nM, a koff of 0.00155 s⁻¹ and a kon of 74800 M⁻¹ s⁻¹. Moreover, in assay [2], the Kd came to 21.1 ± 3.7 nM, the dH is -53.6 ± 0.8 kcal/mol and the “stoichiometry N” value is 0.37 ± 0.022.

B6: Lge1-CT K324E (domain or fragment, budding yeast, UniProt Q02796 261-332, looked up)
chain: B1 chain with K41E, E45R, K64E
notes: as for B1
On to B6, for which, in assay [1], the dissociation constant (Kd) is 49.8 nM, the koff is 0.00509 s⁻¹ and the kon was found to be 102000 M⁻¹ s⁻¹. In assay [2], the Kd was 8.77 ± 2.09 nM, the dH was -48 ± 0.7 kcal/mol and the “stoichiometry N” value came to 0.329 ± 0.001.

B7: Lge1-CT L325N (domain or fragment, budding yeast, UniProt Q02796 261-332, looked up)
chain: B1 chain with K41E, E45R, L65N
notes: as for B1
In assay [1], B7 showed a Kd of 58.7 nM, a koff of 0.00328 s⁻¹ and an on-rate (kon) of 55900 M⁻¹ s⁻¹. In assay [2], the Kd was 8.06 ± 1.52 nM, the dH was -61.2 ± 0.6 kcal/mol and the “stoichiometry N” value stood at 0.367 ± 0.001.

B8: Lge1-CT L320N (domain or fragment, budding yeast, UniProt Q02796 261-332, looked up)
chain: B1 chain with K41E, E45R, L60N
notes: as for B1
In assay [1], B8 returned a dissociation constant Kd of 50.8 nM, a koff of 0.00417 s⁻¹ and a kon of 82000 M⁻¹ s⁻¹. Besides, in assay [2], binding was put at a Kd of 23.7 ± 3.8 nM, the dH was -49.9 ± 0.6 kcal/mol and the “stoichiometry N” value was found to be 0.37 ± 0.002.

B9: intein-CBD-tagged WAC-CT (WAC residues 570–647) (domain or fragment, human, UniProt Q9BTA9 570-647, looked up)
chain: HVQGWPADHAEKQASRLREEAHNMGTIHMSEICTELKNLRSLVRVCEIQATLREQRILFLRQQIKELEKLKNQNSFMV
notes: WAC, human, residues 570-647; purified on Ni-NTA although no histidine tag is named; also called intein-WAC; WT; source: purified (Ni-NTA, heparin, gel filtration)
In assay [3], B9 came in with a Kd of 504 nM, a koff of 0.0234 s⁻¹ and a kon of 46400 M⁻¹ s⁻¹. Also, in assay [4], the dissociation constant Kd came out at 539 nM, the koff was 0.0168 s⁻¹ and the kon came to 31300 M⁻¹ s⁻¹.

B10: intein-WAC S2 (E604K/K606E/R609E/R613E/E616K) (domain or fragment, human, UniProt Q9BTA9 570-647, looked up)
chain: B9 chain with E35K, K37E, R40E, R44E, E47K
notes: WAC, human, residues 570-647; source: purified (Ni-NTA, heparin, gel filtration)
In assay [5], B10 yielded a Kd of 262 nM, a koff of 0.00338 s⁻¹ and a kon of 12900 M⁻¹ s⁻¹.

B11: intein-WAC S4 (R630E) (domain or fragment, human, UniProt Q9BTA9 570-647, looked up)
chain: B9 chain with R61E
notes: as for B10
Regarding B11, in assay [3], the Kd turned out to be 1190 nM, the koff worked out at 0.0138 s⁻¹ and the association rate constant (kon) worked out at 11600 M⁻¹ s⁻¹.

B12: intein-WAC S5 (E635K/E637K/K640E) (domain or fragment, human, UniProt Q9BTA9 570-647, looked up)
chain: B9 chain with E66K, E68K, K71E
notes: as for B10
In assay [3], B12 displayed a Kd of 325 nM, an off-rate (koff) of 0.0143 s⁻¹ and a kon of 44100 M⁻¹ s⁻¹.

B13: intein-WAC S1 (D577K/E580K/R587E) (domain or fragment, human, UniProt Q9BTA9 570-647, looked up)
chain: B9 chain with D8K, E11K, R18E
notes: as for B10
In assay [3], B13 returned a Kd of 514 nM, a koff of 0.0165 s⁻¹ and a kon of 32000 M⁻¹ s⁻¹.

B14: intein-WAC S3 (R622E/E623K/R625E) (domain or fragment, human, UniProt Q9BTA9 570-647, looked up)
chain: B9 chain with R53E, E54K, R56E
notes: as for B10
Turning to B14, in assay [6], the affinity, expressed as Kd, was 285 nM; the koff was determined as 0.00308 s⁻¹; the kon worked out at 10800 M⁻¹ s⁻¹.

B15: Lge1, 6× histidine tag, purified (natural protein, budding yeast, UniProt Q02796 1-332, looked up)
chain: MSGYTGNNYSRYSSTPPRQRGGYHHARRSRGGAGGSYYRGGNASYGARYNSDYEQPPQEGDLRQTGAYYRNGYTDTRPYYSANSRHYQAQPSPRYNNGTNSYHLPQRGNSQDTNGRTTSASQEDNDEKRVKSRYRNMQADHPRQQPMSVGSTSSRNGSSGNSSTSSTSNGLPPPPSVSSITNNRSYHSSAYPYSSSHTYNNYHHRETPPPPPSNGYYAKGYPVHVPENRSNSDGSSSSVVKKKRILDMKDSPFIYLTDFDKNVKKTNNTESECEKAREVFKESDSIDSALEELNLKINSNELELRLLNNQCDKHALNIQLTQEKLDSLLLMQ
notes: Lge1, budding yeast; source: E. coli BL21 Rosetta (DE3), purified (Ni-NTA in 8 M urea, urea removed by washing)
Regarding B15, the binding result in assay [7] is reported as “binds”.
